# T1: CitGATA7 (Citrus, UniProt A0ACB8JKI3 1-185)
# T1 sequence: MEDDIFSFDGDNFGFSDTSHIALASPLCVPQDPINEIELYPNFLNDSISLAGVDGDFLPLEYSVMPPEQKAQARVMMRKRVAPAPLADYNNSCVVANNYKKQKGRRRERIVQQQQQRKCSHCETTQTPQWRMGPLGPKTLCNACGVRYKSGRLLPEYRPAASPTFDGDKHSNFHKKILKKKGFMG
# Target: T1, CitGATA7
# Experiment: EMSA; LightShift Chemiluminescent EMSA kit (Thermo), manufacturer's instructions; buffer, salt, pH and temperature not stated
# Conditions: protein: recombinant; tags: His (pET-32a); label: 3'-biotin (both strands); blunt
row,Binder,binding result
1,CitACO3 promoter probe mutant (dsDNA) DNA 1: TCCCATAAAAAACCCCCCTAATAATAAAAG DNA 2: CTTTTATTATTAGGGGGGTTTTTTATGGGA,no binding
2,CitIDH1 promoter probe mutant (dsDNA) DNA 1: CATTAAATTCCATTTTTTCTAATATG DNA 2: CATATTAGAAAAAATGGAATTTAATG,no binding
3,CitGS1 promoter probe mutant (dsDNA) DNA 1: GCACACCATCTCAAAAAGGTGGTAATTTTG DNA 2: CAAAATTACCACCTTTTTGAGATGGTGTGC,no binding

# Target: T1, CitGATA7
# Experiment: EMSA; attenuated dose-dependently by unlabeled WT probe; LightShift Chemiluminescent EMSA kit (Thermo), manufacturer's instructions; buffer, salt, pH and temperature not stated
# Conditions: protein: recombinant; tags: His (pET-32a); label: 3'-biotin (both strands); blunt
row,Binder,binding result
1,CitACO3 promoter probe WT (dsDNA) DNA 1: TCCCATAAAAAAAGATCATAATAATAAAAG DNA 2: CTTTTATTATTATGATCTTTTTTTATGGGA,binds
2,CitGS1 promoter probe WT (dsDNA) DNA 1: GCACACCATCTCGATCAGGTGGTAATTTTG DNA 2: CAAAATTACCACCTGATCGAGATGGTGTGC,binds
3,CitIDH1 promoter probe WT (dsDNA) DNA 1: CATTAAATTCCACATCATCTAATATG DNA 2: CATATTAGATGATGTGGAATTTAATG,binds

# Source: PMC11786515, “CitGATA7 interact with histone acetyltransferase CitHAG28 to promote citric acid degradation by regulating the glutamine synthetase pathway in citrus”
